Article PMC10995880 (iScience, 2024)
Positions count from the first letter of the chain named. In names and notes the source's numbering stands.

B1: Flag-PEX3ΔN-G138E (domain or fragment, UniProt P56589 41-373, looked up)
chain: QEREAAEYIAQARRQYHFESNQRTCNMTVLSMLPTLREALMQQLNSESLTALLKNRPSNKLEIWEDLKIISFTRSTVAVYSTCMLVVLLRVQLNIIGEYIYLDNAAVGKNGTTILAPPDVQQQYLSSIQHLLGDGLTELITVIKQAVQKVLGSVSLKHSLSLLDLEQKLKEIRNLVEQHKSSSWINKDGSKPLLCHYMMPDEETPLAVQACGLSPRDITTIKLLNETRDMLESPDFSTVLNTCLNRGFSRLLDNMAEFFRPTEQDLQHGNSMNSLSSVSLPLAKIIPIVNGQIHSVCSETPSHFVQDLLTMEQVKDFAANVYEAFSTPQQLEK
B2: Flag-PEX3ΔN-M72K (domain or fragment, UniProt P56589 41-373, looked up)
chain: B1 chain with M32K, E98G

Molecular target: His6-PEX19-WT (1–299 aa), non-farnesylated (human, UniProt P40855 1-299)
Sequence (P40855 whole entry, the tested form may be a part): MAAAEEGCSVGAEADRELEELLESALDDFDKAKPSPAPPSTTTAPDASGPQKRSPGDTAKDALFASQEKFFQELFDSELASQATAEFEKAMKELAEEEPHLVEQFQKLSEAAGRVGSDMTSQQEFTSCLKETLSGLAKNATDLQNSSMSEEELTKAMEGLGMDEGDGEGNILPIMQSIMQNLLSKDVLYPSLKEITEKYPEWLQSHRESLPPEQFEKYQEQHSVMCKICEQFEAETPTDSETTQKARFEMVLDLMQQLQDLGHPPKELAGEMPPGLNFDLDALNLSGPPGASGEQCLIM
Assay: pull-down; His6-PEX19 pull-down of Flag-PEX3ΔN variants at the same concentrations of PEX19 and PEX3 as in the PEX26^Bpa crosslinking experiments (400 nM)
Settings: both partners purified

| Binder | binding result |
| --- | --- |
| B1 | binds |
| B2 | binds |
